Test results from patent US20260226173A1, “COMPOSITIONS INCLUDING ANTI-WT-1 ANTIBODIES & ANTIGEN BINDING FRAGMENTS AND USES THEREOF” (Memorial Sloan-Kettering Cancer Center, priority 2023, published 2026).

Target: HLA-A2-negative cells (HL-60, K562, primary AML 120B, normal cells of HLA-A2-negative donors)
Experiment: cell-based or functional assay

B1: ESK2 caTCR clone #34 (AbTCR), expressed on primary T cells (protein)
VH: QVQLVQSGTEVRKPGASLKVSCTTSGYIFTGYYIHWVRQVPGQGLEWMGWINPNSGVTEFAQGFQGRITMTRDTSTSTVYMELSRLTSDDTAVYYCAREGVWGYYDSWGQGTLVTVSS
VL: SSELTQDPAVSVALGQTVRITCQGDSLRSYYASWYQQKPGQAPVLVIYDKNNRPSGIPDRFSGSSSGNTASLTITGAQAEDEADYYCNSRDSSGNHHVVFGGGTKLTVLG
Reduction of CD33+ cells (%), AbTCR-CSR #34 T cells (with anti-CD33 CSR), primary AML 120B (HLA-A*02:01 -): 2.3%
